The values that follow come from the supplement of paper PMC9732359.

The nature of the series: protein stability index of a GFP-peptide fusion (yeast GPS) (PSI 1-4); higher = more stable; sorted into four equal gates, so the index is relative within each strain. Put shortly:
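Plasmids isolated from each sorting gate were PCR-amplified and Illumina-sequenced, and barcodes assigned the reads to strains. The gates, four of equal size, were set by GFP/Cherry fluorescence ratio on mid-log cultures in leucine-free medium. These cultures were yeast carrying a pooled library of tiled 17-residue yeast protein peptides fused downstream of GFP on a plasmid that also expresses Cherry. The protein stability index is the sum of every gate's read frequency times its gate number.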

± gives the uncertainty stated by the source.

With LNFKDDKKYKGLTTVWL [REC8], the protein stability index runs as follows: (doa10∆) 2.71 ± 0.064; (pdr5∆) 2.77 ± 0.14; (san1∆) 2.64 ± 0.13; (ubr1∆) 2.69 ± 0.066.

LNGILADEMGLGKTIQT [SNF2] returned a protein stability index (doa10∆) of 2.91 ± 0.11, a protein stability index (pdr5∆) of 2.67 ± 0.1, a protein stability index (san1∆) of 3.29 ± 0.066 and a protein stability index (ubr1∆) of 2.56 ± 0.095.

LNHRNKNQHRAASWYGS [RMP1] displayed a protein stability index (doa10∆) of 2.86 ± 0.092, a protein stability index (pdr5∆) of 3.31 ± 0.07, a protein stability index (san1∆) of 3.17 ± 0.056 and a protein stability index (ubr1∆) of 3.06 ± 0.044.

For the sequence LNLDSLLVDQKQLNSLR [SMD1], the protein stability index by setting is: (doa10∆) 2.51 ± 0.051; (pdr5∆) 2.79 ± 0.059; (san1∆) 2.98 ± 0.067; (ubr1∆) 2.51 ± 0.062.

Regarding LNNLPYKNEDVTALLEQ [YCS4], the protein stability index (doa10∆) came to 2.9 ± 0.058, the protein stability index (pdr5∆) amounted to 3.09 ± 0.05, the protein stability index (san1∆) is 3.05 ± 0.047 and the protein stability index (ubr1∆) amounted to 2.99 ± 0.056.

Regarding LNSNIRAGVTIPSIPNP [SNF5], the protein stability index turned out to be 2.57 ± 0.075 (doa10∆), 2.72 ± 0.062 (pdr5∆), 2.5 ± 0.062 (san1∆) and 2.72 ± 0.049 (ubr1∆).

For the sequence LNSNNSIIGNKNNNYTW [REC8], the protein stability index is, setting by setting: (doa10∆) 2.86 ± 0.14; (pdr5∆) 2.76 ± 0.1; (san1∆) 2.87 ± 0.07; (ubr1∆) 2.41 ± 0.072.

As to LNTFHFAGVASKKVTSG [RPO21], the protein stability index was determined as 2.67 ± 0.093 (doa10∆), 3.13 ± 0.078 (pdr5∆), 2.9 ± 0.065 (san1∆) and 2.9 ± 0.077 (ubr1∆).

On to LNVGNVLPLGSVPEGTI [RPL2A], for which the protein stability index was found to be 3.2 ± 0.077 (doa10∆), 3.15 ± 0.082 (pdr5∆), 3.26 ± 0.1 (san1∆) and 3.28 ± 0.061 (ubr1∆).

For LNVVMKNLERLRGEYND [SMC4], the protein stability index reads like this: (doa10∆) 3.26 ± 0.092; (pdr5∆) 3.49 ± 0.11; (san1∆) 3.37 ± 0.068; (ubr1∆) 3.66 ± 0.13.

Consider LPAPPVCIRPSVMMQDS [RPO31], for which the protein stability index is, setting by setting: (doa10∆) 1.61 ± 0.081; (pdr5∆) 2.08 ± 0.1; (san1∆) 1.93 ± 0.11; (ubr1∆) 2.04 ± 0.095.

Consider LPIESQFVSKLVDNLNA [BRR2], for which the protein stability index (doa10∆) was found to be 2.32 ± 0.052, the protein stability index (pdr5∆) came out at 2.34 ± 0.049, the protein stability index (san1∆) stood at 2.5 ± 0.072 and the protein stability index (ubr1∆) came to 2.4 ± 0.059.

Turning to LPKIIQLQGPQWMNEMV [SOH1], the protein stability index (doa10∆) is 3.15 ± 0.088, the protein stability index (pdr5∆) turned out to be 3.29 ± 0.064, the protein stability index (san1∆) was determined as 3.14 ± 0.066 and the protein stability index (ubr1∆) was determined as 3.06 ± 0.07.

Regarding LPKLNLPKYQTIQYDPP [SNF5], the protein stability index worked out at 2.53 ± 0.22 (doa10∆), 2.6 ± 0.11 (pdr5∆), 2.31 ± 0.16 (san1∆) and 2.11 ± 0.084 (ubr1∆).

On to LPQCIIPSSYIKRTDEG [ARP7], for which the protein stability index was found to be 2.77 ± 0.1 (doa10∆), 2.59 ± 0.068 (pdr5∆), 2.13 ± 0.099 (san1∆) and 2.49 ± 0.065 (ubr1∆).

Consider LPRYQELTKEEAMYKLQ [SMC3], for which the protein stability index is 3.02 ± 0.12 (doa10∆), 3.18 ± 0.087 (pdr5∆), 3.43 ± 0.092 (san1∆) and 3.04 ± 0.073 (ubr1∆).

Consider LPSAVDGENDKKEATKP [YLR335W/NUP2], for which the protein stability index is, setting by setting: (doa10∆) 3.36 ± 0.082; (pdr5∆) 3.29 ± 0.067; (san1∆) 3.05 ± 0.056; (ubr1∆) 3.37 ± 0.059.

With LPSEDSRAQILQIHSRK [RPT5], the protein stability index runs as follows: (doa10∆) 2.21 ± 0.072; (pdr5∆) 2.39 ± 0.049; (san1∆) 2.55 ± 0.064; (ubr1∆) 2.89 ± 0.04.

Regarding LPSPESLKTKLNSNIRA [SNF5], the protein stability index is, setting by setting: (doa10∆) 1.52 ± 0.048; (pdr5∆) 1.71 ± 0.043; (san1∆) 2.15 ± 0.061; (ubr1∆) 2.1 ± 0.035.

Consider LPSWSLGKWYSKEDYET [ARP7], for which the protein stability index by setting is: (doa10∆) 1.62 ± 0.17; (pdr5∆) 1.12 ± 0.14; (ubr1∆) 1.09 ± 0.11.

As for LPTPTPTEMEPDLDTEC [SWI1], the protein stability index is 2.92 ± 0.05 (doa10∆), 3.09 ± 0.05 (pdr5∆), 2.77 ± 0.048 (san1∆) and 2.94 ± 0.032 (ubr1∆).

For LPTRYTLDVEAFKSVVS [RPL27A], the protein stability index turned out to be 1.33 ± 0.031 (doa10∆), 1.55 ± 0.039 (pdr5∆), 1.62 ± 0.066 (san1∆) and 1.34 ± 0.031 (ubr1∆).

For the sequence LQAFGESESTTNVYSKD [RPB3], the protein stability index came out at 2.08 ± 0.081 (doa10∆), 2.1 ± 0.06 (pdr5∆), 1.68 ± 0.076 (san1∆) and 1.72 ± 0.041 (ubr1∆).

Take LQAQLDYLNAELGEFFV [FAS2]: the protein stability index runs as follows: (doa10∆) 3.06 ± 0.18; (san1∆) 2.94 ± 0.17; (ubr1∆) 3.18 ± 0.16.

Consider LQDLISVYGLDDISRQV [ROX3], for which the protein stability index by setting is: (doa10∆) 2.69 ± 0.077; (pdr5∆) 2.88 ± 0.086; (san1∆) 2.84 ± 0.12; (ubr1∆) 3.21 ± 0.051.
